According to patent US20160145343A1:

Legend:
[1] = molecular target: MUC1 on MUC1+ human cancer cell lines and tumor tissue (abnormal, e.g. hypoglycosylated, tumor MUC1) (human) (UniProt P15941); assay: immunohistochemistry, colon tissue microarray
[2] = molecular target: MUC1 on MUC1+ human cancer cell lines and tumor tissue (abnormal, e.g. hypoglycosylated, tumor MUC1) (human) (UniProt P15941); assay: immunohistochemistry, colon tissue microarray, benign samples
[3] = molecular target: MUC1 on MUC1+ human cancer cell lines and tumor tissue (abnormal, e.g. hypoglycosylated, tumor MUC1) (human) (UniProt P15941); assay: immunohistochemistry, colon tissue microarray, malignant samples
[4] = molecular target: MUC1 on MUC1+ human cancer cell lines and tumor tissue (abnormal, e.g. hypoglycosylated, tumor MUC1) (human) (UniProt P15941); assay: flow cytometry, BT20 cells, secondary antibody only
[5] = molecular target: MUC1 on MUC1+ human cancer cell lines and tumor tissue (abnormal, e.g. hypoglycosylated, tumor MUC1) (human) (UniProt P15941); assay: flow cytometry, HPAF cells, secondary antibody only
[6] = molecular target: MUC1 on MUC1+ human cancer cell lines and tumor tissue (abnormal, e.g. hypoglycosylated, tumor MUC1) (human) (UniProt P15941); assay: flow cytometry, MCF-7 cells, secondary antibody only
[7] = molecular target: MUC1 on MUC1+ human cancer cell lines and tumor tissue (abnormal, e.g. hypoglycosylated, tumor MUC1) (human) (UniProt P15941); assay: flow cytometry, PANC-1 cells, secondary antibody only
[8] = molecular target: MUC1 on MUC1+ human cancer cell lines and tumor tissue (abnormal, e.g. hypoglycosylated, tumor MUC1) (human) (UniProt P15941); assay: flow cytometry, SKBR-3 cells, secondary antibody only
[9] = molecular target: MUC1 on MUC1+ human cancer cell lines and tumor tissue (abnormal, e.g. hypoglycosylated, tumor MUC1) (human) (UniProt P15941); assay: flow cytometry, MS+MUC1 cells, secondary antibody only
[10] = molecular target: MUC1 on MUC1+ human cancer cell lines and tumor tissue (abnormal, e.g. hypoglycosylated, tumor MUC1) (human) (UniProt P15941); assay: flow cytometry, BT20 cells
[11] = molecular target: MUC1 on MUC1+ human cancer cell lines and tumor tissue (abnormal, e.g. hypoglycosylated, tumor MUC1) (human) (UniProt P15941); assay: flow cytometry, HPAF cells
[12] = molecular target: MUC1 on MUC1+ human cancer cell lines and tumor tissue (abnormal, e.g. hypoglycosylated, tumor MUC1) (human) (UniProt P15941); assay: flow cytometry, MCF-7 cells
[13] = molecular target: MUC1 on MUC1+ human cancer cell lines and tumor tissue (abnormal, e.g. hypoglycosylated, tumor MUC1) (human) (UniProt P15941); assay: flow cytometry, PANC-1 cells
[14] = molecular target: MUC1 on MUC1+ human cancer cell lines and tumor tissue (abnormal, e.g. hypoglycosylated, tumor MUC1) (human) (UniProt P15941); assay: flow cytometry, SKBR-3 cells
[15] = molecular target: MUC1 on MUC1+ human cancer cell lines and tumor tissue (abnormal, e.g. hypoglycosylated, tumor MUC1) (human) (UniProt P15941); assay: flow cytometry, MS+MUC1 cells

| Substance | samples MUC1+ by staining (of 6 benign samples) [1] | samples MUC1+ by staining (of 138 malignant samples) [1] | MUC1+ samples stained (of 3 MUC1+ benign samples) [2] | MUC1+ samples stained (of 114 MUC1+ malignant samples) [3] | percentage of APC+ stained cells [4] [%] | percentage of APC+ stained cells [5] [%] | percentage of APC+ stained cells [6] [%] | percentage of APC+ stained cells [7] [%] | percentage of APC+ stained cells [8] [%] | percentage of APC+ stained cells [9] [%] | percentage of APC+ stained cells [10] [%] | percentage of APC+ stained cells [11] [%] | percentage of APC+ stained cells [12] [%] | percentage of APC+ stained cells [13] [%] | percentage of APC+ stained cells [14] [%] | percentage of APC+ stained cells [15] [%] |
| --- | --- | --- | --- | --- | --- | --- | --- | --- | --- | --- | --- | --- | --- | --- | --- | --- |
| HMPV (BD Biosciences), mouse anti-MUC1 antibody | 3 | 114 | 3 | 114 | – | – | – | – | – | – | – | – | – | – | – | – |
| Hu-2nd. (APC-labeled secondary antibody only control for the human antibodies) | – | – | – | – | 1.17 | 1.02 | 1.73 | 2.01 | 0.96 | 0.55 | – | – | – | – | – | – |
| M-2nd. (APC-labeled secondary antibody only control for the mouse antibodies) | – | – | – | – | 1.74 | 0.77 | 1.39 | 3.45 | 1.67 | 0.46 | – | – | – | – | – | – |
| VU-3C6 (Abcam), mouse anti-MUC1 antibody | – | – | – | – | – | – | – | – | – | – | 92.3 | 98.4 | 98.7 | 98.8 | 99.9 | 99.4 |
| VU-4H5 (Abnova), mouse anti-MUC1 antibody | – | – | 2 | 49 | – | – | – | – | – | – | 32.9 | 6.99 | 27.8 | 54.3 | 24.1 | 24.6 |
